Laboratory results: patent US20130196320A1, “METHOD FOR IMPROVING CLEAVAGE OF DNA BY ENDONUCLEASE SENSITIVE TO METHYLATION” (CELLECTIS, priority 2010, published 2013)

Tests used:
Type in all cases: cell-based, human
[1] = system: ADCY9 target CpG in 293H cells; assay: DNA methylation status of ADCY9 target by bisulfite technique; conditions: 0.2 and 1 μM; 100% methylated without treatment
Method: The human 293H cells (ATCC) were plated at a density of 1.2×10^6 cells per 10 cm dish in complete medium (DMEM supplemented with 2 mM L-glutamine, penicillin (100 IU/ml), streptomycin (100 μg/ml), amphotericin B (Fongizone: 0.25 μg/ml, Invitrogen-Life Science) and 10% FBS). The cells were pre-treated with 5-aza-deoxycytidine at 0.2 μM or 1 μM, 48 hours before transfection and the treatment was maintained 48 hours post-transfection. The medium was changed every day. The cells were transfected with 5 μg of DNA plasmids encoding meganuclease using Lipofectamine 2000 transfection reagent (Invitrogen) according to the manufacturer's protocol.
The procedure as described in Example 4 was followed to assess the level of DNA methylation, except that we used specific primers to amplify the sequence surrounded the ADCY9 meganuclease recognition site. Primers ADCY9_F1 […] (SEQ ID NO: 43) and ADCY9_R1 […] (SEQ ID NO: 44) were used. PCR products were sequenced directly with primer ADCY9_F2 […] (SEQ ID NO: 45).

[2] = system: XPC4 target CpG motives in 293H cells; assay: DNA methylation of XPC4 target by bisulfite treatment and sequencing, 5-aza-2-deoxycytidine treatment; conditions: for amount of unmethylated C, % of total: one of the two CpG of XPC4 target; for amount of unmethylated C: the other CpG of XPC4 target
Method: FIG. 9: Chromatograms of sequencing reactions at the XPC4 target locus, made after bisulfite treatment. Cells were pre-treated with 5-aza-2-deoxycytidine at 0.2 μM or 1 μM 48 hours before transfection with the XPC4 meganuclease or with an empty vector. The treatment was maintained 48 hours post-transfection. As a control, we used cells not treated with 5-aza-2-deoxycytidine (NT). Two days post transfection, genomic DNA was extracted and treated with bisulfite, which converts cytosine, but not 5-methylcytosine into uracil. DNA from the XPC4 target locus region was amplified by PCR, and sequenced. Sequence of the XPC4 target is indicated on top (XPC4 target), with the two CpG motives being underlined. On the chromatograms, 5-methyl-cytosines appear as cytosines (C), and non methylated cytosines (converted to uracil) as thymines (T). In the presence of 5-aza-2-deoxycytidine, a fraction of the CpG motives is demethylated, resulting in a dual C/T peak.
The human 293H cells (ATCC) were plated at a density of 1.2×10^6 cells per 10 cm dish in complete medium (DMEM supplemented with 2 mM L-glutamine, penicillin (100 IU/ml), streptomycin (100 μg/ml), amphotericin B (Fongizone: 0.25 μg/ml, Invitrogen-Life Science) and 10% FBS) supplemented with 5-aza-deoxycytidine. The next day, cells were transfected with 3 μg of meganuclease expression vector in the presence of 5-aza-deoxycytidine and Lipofectamine 2000 transfection reagent (Invitrogen) according to the manufacturer's protocol.
Cells were pre-treated with 5-aza-deoxycytidine at 0.2 μM or 1 μM 48 hours before transfection and the treatment was maintained 48 hours post-transfection. As a control, cells not treated with 5-aza-2-deoxycytidine (NT) were used. Extraction of genomic DNA was performed 48 hours after transfection.
To assess the level DNA methylation, DNA sequencing was performed after a bisulfite treatment according to the instructions of the manufacturer (EZ DNA methylation-Gold Kit, Zymo Research). After genomic DNA extraction, the XPC4 target locus was amplified by PCR with specific primers

[3] = system: XPC4 target locus in 293H cells; assay: Meganuclease-induced mutagenesis at XPC4 target locus by deep sequencing, siRNA targeting DNMT1; conditions: for mutagenesis, PCR fragments carrying a mutation: XPC4 meganuclease plasmid
Method: The human 293H cells (ATCC) were plated at a density of 1.2×10^6 cells per 10 cm dish in complete medium (DMEM supplemented with 2 mM L-glutamine, penicillin (100 IU/ml), streptomycin (100 μg/ml), amphotericin B (Fongizone: 0.25 μg/ml, Invitrogen-Life Science) and 10% FBS). The next day, cells were transfected with 5 μg of empty vector pCLS003 (SEQ ID NO: 65) and 1 nM or 5 nM of si_DNMT1 composed of mixture of two siRNA DNMT1—1 ([…], SEQ ID NO: 66) and DNMT1—2 ([…], SEQ ID NO: 67) or with si_AS, a siRNA control with no known human target, using Lipofectamine 2000 as transfection reagent (Invitrogen) according to the manufacturer's protocol. The day after, cells were re-platted at the density of 1.2×10^6 cells per 10 cm. 24 hours after, cells were transfected again with 1 nM or 5 nM of siDNMT1 or si_AS in presence of 3 μg of meganuclease expressing vector (pCLS2510; SEQ ID NO: 68) and 2 μg of empty vector or 5 μg of empty vector (SEQ ID NO: 65), with Lipofectamine 2000 transfection reagent (Invitrogen) according to the manufacturer's protocol.
After genomic DNA extraction, the XPC4 target locus was amplified with specific primers flanked by specific adaptator needed for HTS sequencing on the 454 sequencing system (454 Life Sciences)
5,000 to 10,000 sequences per sample were analyzed.

| Molecule | amount of methylated CpG within ADCY9 target [1] [%] | amount of unmethylated C, % of total ([2]; 0.2 μM) [%] | amount of unmethylated C, % of total ([2]; 1 μM) [%] | amount of unmethylated C ([2]; 0.2 μM) [%] | amount of unmethylated C ([2]; 1 μM) [%] | mutagenesis, PCR fragments carrying a mutation ([3]; Si_AS 1 nM (control siRNA)) [%] | mutagenesis, PCR fragments carrying a mutation ([3]; Si_AS 5 nM (control siRNA)) [%] | mutagenesis, PCR fragments carrying a mutation ([3]; Si_DNMT1 1 nM) [%] | mutagenesis, PCR fragments carrying a mutation ([3]; Si_DNMT1 5 nM) [%] | PCR fragments carrying a mutation ([3]; XPC4 meganuclease, non relevant siRNA (si_AS)) | mutations ([3]; XPC4 meganuclease, samples treated with si_DNMT1) |
| --- | --- | --- | --- | --- | --- | --- | --- | --- | --- | --- | --- |
| Nc1ncn([C@H]2C[C@H](O)[C@@H](CO)O2)c(=O)n1 [5-aza-2′deoxycytidine, reference compound] | 40 | 25 | 36 | 35 | 45 | – | – | – | – | – | – |
| XPC4: engineered meganuclease (SEQ ID NO: 2) designed to cleave xeroderma pigmentosum group C gene (XPC) (protein) MANTKYNEEFLLYLAGFVDGDGSIIAQIKPNQSHKFKHALQLTFKVTQKTQRRWFLDKLVDEIGVGYVQDSGSVSNYILSEIKPLHNFLTQLQPFLELKQKQANLALKIIEQLPSAKESPDKFLEVCTWVDQVAALNDSKTRKTTSETVRAVLDSLSEKKKSSPAAGGSDKYNQALSKYNQALSKYNQALSGGGGSNKKFLLYLAGFVDSDGSIIAQIKPNQSHKFKHQLSLAFQVTQKTQRRWFLDKLVDRIGVGYVRDRGSVSDYILSKIKPLHNFLTQLQPFLKLKQKQANLVLKIIEQLPSAKESPDKFLEVCTWVDQVAALNDSKTRKTTSETVRAVLDSLSEKKKSSP | – | – | – | – | – | 0.3 | 0.2 | 4.8 | 7.6 | 0.2-0.3% | up to 7% |
